Source: US20160123962A1 (ALBERT EINSTEIN COLLEGE OF MEDICINE, published 2016)
Values belong to the molecule of their own block, whether it stands above or below them.

B5: human tenascin-R (hTN-R) (other, UniProt Q92752 32-1358, looked up)
chain: QLEVTTERVQRQSVEEEGGIANYNTSSKEQPVVFNHVYNINVPLDNLCSSGLEASAEQEVSAEDETLAEYMGQTSDHESQVTFTHRINFPKKACPCASSAQVLQELLSRIEMLEREVSVLRDQCNANCCQESAATGQLDYIPHCSGHGNFSFESCGCICNEGWFGKNCSEPYCPLGCSSRGVCVDGQCICDSEYSGDDCSELRCPTDCSSRGLCVDGECVCEEPYTGEDCRELRCPGDCSGKGRCANGTCLCEEGYVGEDCGQRQCLNACSGRGQCEEGLCVCEEGYQGPDCSAVAPPEDLRVAGISDRSIELEWDGPMAVTEYVISYQPTALGGLQLQQRVPGDWSGVTITELEPGLTYNISVYAVISNILSLPITAKVATHLSTPQGLQFKTITETTVEVQWEPFSFSFDGWEISFIPKNNEGGVIAQVPSDVTSFNQTGLKPGEEYIVNVVALKEQARSPPTSASVSTVIDGPTQILVRDVSDTVAFVEWIPPRAKVDFILLKYGLVGGEGGRTTFRLQPPLSQYSVQALRPGSRYEVSVSAVRGTNESDSATTQFTTEIDAPKNLRVGSRTATSLDLEWDNSEAEVQEYKVVYSTLAGEQYHEVLVPRGIGPTTRATLTDLVPGTEYGVGISAVMNSQQSVPATMNARTELDSPRDLMVTASSETSISLIWTKASGPIDHYRITFTPSSGIASEVTVPKDRTSYTLTDLEPGAEYIISVTAERGRQQSLESTVDAFTGFRPISHLHFSHVTSSSVNITWSDPSPPADRLILNYSPRDEEEEMMEVSLDATKRHAVLMGLQPATEYIVNLVAVHGTVTSEPIVGSITTGIDPPKDITISNVTKDSVMVSWSPPVASFDYYRVSYRPTQVGRLDSSVVPNTVTEFTITRLNPATEYEISLNSVRGREESERICTLVHTAMDNPVDLIATNITPTEALLQWKAPVGEVENYVIVLTHFAVAGETILVDGVSEEFRLVDLLPSTHYTATMYATNGPLTSGTISTNFSTLLDPPANLTASEVTRQSALISWQPPRAEIENYVLTYKSTDGSRKELIVDAEDTWIRLEGLLENTDYTVLLQAAQDTTWSSITSTAFTTGGRVFPHPQDCAQHLMNGDTLSGVYPIFLNGELSQKLQVYCDMTTDGGGWIVFQRRQNGQTDFFRKWADYRVGFGNVEDEFWLGLDNIHRITSQGRYELRVDMRDGQEAAFASYDRFSVEDSRNLYKLRIGSYNGTAGDSLSYHQGRPFSTEDRDNDVAVTNCAMSYKGAWWYKNCHRTNLNGKYGESRHSQGINWYHWKGHEFSIPFVEMKMRPYNHRLMAGRKRQSLQF
notes: Extracellular matrix protein used as analyte in SPR

Columns and labels:
[1] = biological target: human PTP-ζ (protein tyrosine phosphatase receptor type zeta) of U251 human glioblastoma cells (human) (UniProt P23471); experiment: cell-based or functional assay
Sequence of human PTP-ζ (protein tyrosine phosphatase receptor type zeta) of U251 human glioblastoma cells (human) (P23471 25-2315 limits assumed): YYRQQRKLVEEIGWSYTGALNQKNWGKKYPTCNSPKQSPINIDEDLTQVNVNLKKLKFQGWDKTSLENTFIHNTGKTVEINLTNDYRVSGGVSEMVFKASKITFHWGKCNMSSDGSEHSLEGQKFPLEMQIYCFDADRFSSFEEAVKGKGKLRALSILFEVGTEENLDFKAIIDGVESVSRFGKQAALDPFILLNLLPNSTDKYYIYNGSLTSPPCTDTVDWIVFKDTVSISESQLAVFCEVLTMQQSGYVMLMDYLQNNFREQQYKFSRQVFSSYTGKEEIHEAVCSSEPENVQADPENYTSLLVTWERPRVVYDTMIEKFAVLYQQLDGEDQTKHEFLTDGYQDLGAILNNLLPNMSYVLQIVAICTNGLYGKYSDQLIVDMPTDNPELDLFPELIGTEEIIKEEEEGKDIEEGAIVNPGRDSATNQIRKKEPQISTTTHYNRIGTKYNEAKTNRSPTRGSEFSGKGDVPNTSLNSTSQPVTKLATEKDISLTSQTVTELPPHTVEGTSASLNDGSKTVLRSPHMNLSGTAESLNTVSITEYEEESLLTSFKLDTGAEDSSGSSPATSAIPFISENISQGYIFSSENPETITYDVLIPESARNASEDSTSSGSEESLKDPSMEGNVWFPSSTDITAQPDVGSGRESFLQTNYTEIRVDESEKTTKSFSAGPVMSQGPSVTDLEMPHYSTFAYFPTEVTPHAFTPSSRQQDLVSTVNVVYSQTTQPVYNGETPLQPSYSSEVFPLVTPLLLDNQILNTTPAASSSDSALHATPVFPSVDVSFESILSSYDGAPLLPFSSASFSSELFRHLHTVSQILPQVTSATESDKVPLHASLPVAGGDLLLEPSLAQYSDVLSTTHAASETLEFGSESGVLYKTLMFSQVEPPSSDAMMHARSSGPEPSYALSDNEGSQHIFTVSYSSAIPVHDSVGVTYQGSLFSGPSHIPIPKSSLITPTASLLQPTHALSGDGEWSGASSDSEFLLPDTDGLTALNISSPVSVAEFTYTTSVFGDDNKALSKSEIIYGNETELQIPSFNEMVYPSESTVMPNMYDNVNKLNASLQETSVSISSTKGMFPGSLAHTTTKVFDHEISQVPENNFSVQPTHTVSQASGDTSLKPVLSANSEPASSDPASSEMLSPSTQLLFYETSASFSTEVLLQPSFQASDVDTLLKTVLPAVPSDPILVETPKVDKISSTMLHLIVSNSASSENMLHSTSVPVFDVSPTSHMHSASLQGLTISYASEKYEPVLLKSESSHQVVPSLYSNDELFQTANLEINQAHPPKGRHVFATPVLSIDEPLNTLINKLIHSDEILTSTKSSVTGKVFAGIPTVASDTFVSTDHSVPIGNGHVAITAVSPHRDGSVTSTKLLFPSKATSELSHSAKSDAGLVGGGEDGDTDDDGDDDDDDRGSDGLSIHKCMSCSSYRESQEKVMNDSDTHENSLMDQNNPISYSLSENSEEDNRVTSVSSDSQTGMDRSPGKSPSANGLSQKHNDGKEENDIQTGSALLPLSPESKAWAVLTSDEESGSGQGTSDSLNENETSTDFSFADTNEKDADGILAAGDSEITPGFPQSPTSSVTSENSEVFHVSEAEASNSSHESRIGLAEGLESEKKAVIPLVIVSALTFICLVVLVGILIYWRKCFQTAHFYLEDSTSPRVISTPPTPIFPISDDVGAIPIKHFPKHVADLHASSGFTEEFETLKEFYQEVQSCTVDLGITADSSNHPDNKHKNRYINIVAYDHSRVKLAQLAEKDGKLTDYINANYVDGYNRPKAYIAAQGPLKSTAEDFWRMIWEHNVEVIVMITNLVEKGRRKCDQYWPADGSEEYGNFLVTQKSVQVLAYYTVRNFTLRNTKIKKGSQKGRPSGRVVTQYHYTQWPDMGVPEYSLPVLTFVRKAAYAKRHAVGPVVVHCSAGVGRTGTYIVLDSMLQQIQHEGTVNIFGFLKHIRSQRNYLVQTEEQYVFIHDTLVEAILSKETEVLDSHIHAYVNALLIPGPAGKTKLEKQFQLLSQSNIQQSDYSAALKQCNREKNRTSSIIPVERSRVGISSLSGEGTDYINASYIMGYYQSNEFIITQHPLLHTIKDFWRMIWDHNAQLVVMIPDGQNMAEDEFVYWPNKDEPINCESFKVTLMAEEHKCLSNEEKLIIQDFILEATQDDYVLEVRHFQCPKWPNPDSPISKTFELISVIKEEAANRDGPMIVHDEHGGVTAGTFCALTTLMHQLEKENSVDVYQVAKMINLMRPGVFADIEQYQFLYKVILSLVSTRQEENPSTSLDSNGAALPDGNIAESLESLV

[2] = biological target: T1, human PTP-ζ extracellular domain fused to immunoglobulin Fc domain (hPTP-ζ-ECD-Fc) (human, UniProt P23471 25-1636); experiment: SPR (Biacore T100), hPTP-ζ-ECD-Fc captured on Protein A, hIL-34 as analyte, steady state model; hIL-34 on full-length hPTP-ζ ECD-Fc
T1 construct: also called full-length hPTP-ζ ECD-Fc; not shown: immunoglobulin Fc domain
T1 sequence (P23471 25-1636): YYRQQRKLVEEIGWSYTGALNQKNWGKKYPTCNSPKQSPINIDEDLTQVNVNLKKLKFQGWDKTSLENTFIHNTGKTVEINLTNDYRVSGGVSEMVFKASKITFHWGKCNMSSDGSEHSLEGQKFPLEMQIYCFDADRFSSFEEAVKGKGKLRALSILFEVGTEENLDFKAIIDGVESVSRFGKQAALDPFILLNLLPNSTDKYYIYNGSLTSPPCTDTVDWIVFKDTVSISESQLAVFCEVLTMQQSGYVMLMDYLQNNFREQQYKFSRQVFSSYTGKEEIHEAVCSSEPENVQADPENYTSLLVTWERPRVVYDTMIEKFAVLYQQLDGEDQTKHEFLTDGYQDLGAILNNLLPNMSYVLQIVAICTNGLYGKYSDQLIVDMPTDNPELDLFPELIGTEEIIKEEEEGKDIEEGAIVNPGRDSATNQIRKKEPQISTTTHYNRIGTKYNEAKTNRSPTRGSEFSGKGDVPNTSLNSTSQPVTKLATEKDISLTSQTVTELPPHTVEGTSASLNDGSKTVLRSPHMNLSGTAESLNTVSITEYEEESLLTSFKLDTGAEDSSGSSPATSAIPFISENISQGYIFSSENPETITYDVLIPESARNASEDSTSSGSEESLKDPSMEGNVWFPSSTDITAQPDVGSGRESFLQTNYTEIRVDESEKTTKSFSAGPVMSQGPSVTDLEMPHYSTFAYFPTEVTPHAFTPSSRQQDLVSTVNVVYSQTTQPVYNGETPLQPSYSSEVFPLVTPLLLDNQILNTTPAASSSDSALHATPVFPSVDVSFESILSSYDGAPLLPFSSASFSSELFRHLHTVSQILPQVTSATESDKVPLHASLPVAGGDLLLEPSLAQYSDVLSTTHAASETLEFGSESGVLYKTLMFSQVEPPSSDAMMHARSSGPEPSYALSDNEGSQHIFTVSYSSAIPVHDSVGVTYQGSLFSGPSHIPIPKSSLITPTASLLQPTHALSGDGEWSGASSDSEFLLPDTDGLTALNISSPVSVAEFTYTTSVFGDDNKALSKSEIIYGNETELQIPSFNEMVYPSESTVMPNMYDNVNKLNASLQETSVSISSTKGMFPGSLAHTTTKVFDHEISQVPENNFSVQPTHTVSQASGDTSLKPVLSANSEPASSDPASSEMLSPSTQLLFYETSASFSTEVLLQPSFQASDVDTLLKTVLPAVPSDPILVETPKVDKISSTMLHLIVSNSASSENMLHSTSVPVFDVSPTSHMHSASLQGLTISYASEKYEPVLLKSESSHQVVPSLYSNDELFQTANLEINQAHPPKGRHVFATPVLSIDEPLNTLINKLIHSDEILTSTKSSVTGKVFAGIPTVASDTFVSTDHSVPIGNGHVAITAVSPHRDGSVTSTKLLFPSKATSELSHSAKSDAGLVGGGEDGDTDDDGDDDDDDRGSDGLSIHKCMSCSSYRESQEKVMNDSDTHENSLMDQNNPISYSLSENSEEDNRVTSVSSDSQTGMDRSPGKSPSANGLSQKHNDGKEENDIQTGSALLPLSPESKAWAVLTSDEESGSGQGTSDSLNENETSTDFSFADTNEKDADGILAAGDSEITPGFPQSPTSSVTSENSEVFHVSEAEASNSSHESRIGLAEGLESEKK
Description: (§1) SPR binding analyses were performed at 25° C. on Biacore instruments. […] The protein A surface was regenerated with 10 mM Glycine-HCl, pH 1.5. […] All sensorgrams were double-referenced.

human tenascin-R (hTN-R) = biological target: B5; experiment: SPR (Biacore 3000), IL-34 immobilized on CM5 chip, hTN-R as analyte, steady state model; IL-34 with hTN-R
Description: as §1

human brevican = biological target: T2, human brevican (human, UniProt Q96GW7 23-911, limits assumed); experiment: SPR, brevican immobilized on the chip, hIL-34 as analyte; IL-34 with human brevican
T2 construct: Proteoglycan immobilized on the SPR chip
T2 sequence (looked up): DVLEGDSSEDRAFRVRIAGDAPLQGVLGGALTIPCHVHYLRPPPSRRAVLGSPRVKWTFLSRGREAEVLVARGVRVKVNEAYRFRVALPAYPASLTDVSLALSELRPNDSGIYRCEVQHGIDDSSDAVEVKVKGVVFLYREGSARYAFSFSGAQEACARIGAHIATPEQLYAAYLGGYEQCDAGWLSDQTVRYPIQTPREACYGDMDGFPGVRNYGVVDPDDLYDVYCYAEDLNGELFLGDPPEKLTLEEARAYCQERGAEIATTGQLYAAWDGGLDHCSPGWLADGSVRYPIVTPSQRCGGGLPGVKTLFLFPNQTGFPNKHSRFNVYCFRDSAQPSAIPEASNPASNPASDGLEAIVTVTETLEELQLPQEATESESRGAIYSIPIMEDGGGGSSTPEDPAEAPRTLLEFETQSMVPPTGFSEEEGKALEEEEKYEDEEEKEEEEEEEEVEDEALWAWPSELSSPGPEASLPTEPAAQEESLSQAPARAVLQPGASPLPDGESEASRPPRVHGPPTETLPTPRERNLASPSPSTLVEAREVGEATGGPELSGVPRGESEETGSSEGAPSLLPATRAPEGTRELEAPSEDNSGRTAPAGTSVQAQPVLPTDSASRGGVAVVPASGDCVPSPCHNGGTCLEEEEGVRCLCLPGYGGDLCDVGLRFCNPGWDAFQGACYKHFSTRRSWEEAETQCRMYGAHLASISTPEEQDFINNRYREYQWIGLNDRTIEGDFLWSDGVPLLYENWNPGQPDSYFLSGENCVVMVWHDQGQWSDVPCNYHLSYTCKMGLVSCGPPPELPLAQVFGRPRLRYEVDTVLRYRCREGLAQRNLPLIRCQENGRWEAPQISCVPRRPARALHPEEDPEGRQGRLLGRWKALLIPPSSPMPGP
Description: as §1

[3] = biological target: T3, human CSF-1R extracellular domain fused to immunoglobulin Fc domain (hCSF-1R-ECD-Fc) (human, UniProt P07333 20-517); experiment: SPR (Biacore T100), hCSF-1R-ECD-Fc captured on Protein A, hIL-34 as analyte; hIL-34 on hCSF-1R-ECD-Fc
T3 construct: extracellular domain; not shown: immunoglobulin Fc domain
T3 sequence (P07333 20-517): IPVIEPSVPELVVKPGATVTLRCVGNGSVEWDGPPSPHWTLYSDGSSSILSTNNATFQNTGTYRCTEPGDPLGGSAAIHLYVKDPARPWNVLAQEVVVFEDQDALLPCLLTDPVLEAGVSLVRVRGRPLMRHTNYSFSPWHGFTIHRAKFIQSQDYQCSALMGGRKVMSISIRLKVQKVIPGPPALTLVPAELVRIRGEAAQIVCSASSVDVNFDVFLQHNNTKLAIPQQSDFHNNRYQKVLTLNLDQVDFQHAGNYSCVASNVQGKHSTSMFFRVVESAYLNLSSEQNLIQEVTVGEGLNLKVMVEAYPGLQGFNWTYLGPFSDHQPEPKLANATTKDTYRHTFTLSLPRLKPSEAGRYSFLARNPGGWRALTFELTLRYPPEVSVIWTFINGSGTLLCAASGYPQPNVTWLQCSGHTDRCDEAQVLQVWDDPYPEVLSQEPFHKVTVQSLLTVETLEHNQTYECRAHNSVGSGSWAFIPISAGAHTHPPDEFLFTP
Description: as §1

[4] = biological target: T4, human PTP-ζ (protein tyrosine phosphatase receptor type zeta) of U251 human glioblastoma cells (human, UniProt P23471 25-2315, chondroitin sulfate glycosaminoglycan chains (proteoglycan)); experiment: flow cytometry on U251 cells, detection with biotin-labeled anti-FLAG M2 antibody
T4 construct: Endogenous protein on intact U251 cells (flow cytometry) or in OG-solubilized U251 membrane lysates (pull-down); long (~400 kDa), non-glycosaminoglycanylated (300 kDa) and short (220 kDa) isoforms are present; U251 cells lack CSF-1R; also called PTP-β/ζ; cell-surface PTP-ζ
T4 sequence (P23471 25-2315 limits assumed): as the sequence (P23471 25-2315 limits assumed) above

[5] = biological target: T4, human PTP-ζ (protein tyrosine …); experiment: flow cytometry on U251 cells, detection with biotin-labeled anti-FLAG M2 antibody, at concentrations equivalent to IL-34-FLAG
[6] = biological target: T3, human CSF-1R extracellular domain fused …; experiment: SPR (Biacore T100), hCSF-1R-ECD-Fc captured on Protein A, hCSF-1 as analyte; hCSF-1 on hCSF-1R-ECD-Fc
Description: as §1

[7] = biological target: T1, human PTP-ζ extracellular domain fused …; experiment: SPR (Biacore 3000), hPTP-ζ ECD-Fc immobilized on CM5 chip, hTN-R as analyte, steady state model; TN-R with hPTP-ζ ECD-Fc
Description: as §1

B1: human IL-34 (interleukin-34) (ligand, UniProt Q6ZMJ4 21-242, looked up)
chain: NEPLEMWPLTQNEECTVTGFLRDKLQYRSRLQYMKHYFPINYKISVPYEGVFRIANVTRLQRAQVSERELRYLWVLVSLSATESVQDVLLEGHPSWKYLQEVETLLLNVQQGLTDVEVSPKVESVLSLLNAPGPNLKLVRPKALLDNCFRVMELLYCSCCKQSSVLNWQDCEVPSPQSCSPEPSLQYAATQLYPPPPWSPSSPPHSTGSVRPVRAQGEGLLP
modifications: biotinylated with EZ-Link Sulfo-NHS-LC-LC-Biotin in the pull-down and flow cytometry assays; unlabelled in SPR
notes: Purified protein; also called hIL-34; biotinylated hIL-34
Kd [2]: ~100 nM
Kd (human tenascin-R (hTN-R)): ~1000 nM
Kd (human brevican): 3000 nM
Kd [3]: ~0.001 nM

B2: FLAG-tagged human IL-34 (ligand, UniProt Q6ZMJ4 21-242, looked up)
chain: NEPLEMWPLTQNEECTVTGFLRDKLQYRSRLQYMKHYFPINYKISVPYEGVFRIANVTRLQRAQVSERELRYLWVLVSLSATESVQDVLLEGHPSWKYLQEVETLLLNVQQGLTDVEVSPKVESVLSLLNAPGPNLKLVRPKALLDNCFRVMELLYCSCCKQSSVLNWQDCEVPSPQSCSPEPSLQYAATQLYPPPPWSPSSPPHSTGSVRPVRAQGEGLLP
notes: also called IL-34-FLAG; not shown: FLAG tag
binding result [4]: binds

Molecule: B5
Kd [7]: ~10 nM

Results, then the molecule that gave them:

clonogenicity of U251 cells (colony count at 8 days) [1]: 53%
wound healing of U251 monolayer, time taken for 50% wound closure (t50) [1]: 10 h
Molecule: human pleiotrophin (hPTN) (from UniProt P21246 33-168) (ligand)

binding result [5]: no binding
B3: FLAG-tagged human CSF-1 (ligand, UniProt P09603 33-255, looked up)
chain: EEVSEYCSHMIGSGHLQSLQRLIDSQMETSCQITFEFVDQEQLKDPVCYLKKAFLLVQDIMEDTMRFRDNTPNAIAIVQLQELSLRLKSCFTKDYEEHDKACVRTFYETPLQLLEKVKNVFNETKNLLDKDWNIFSKNCNNSFAECSSQDVVTKPDCNCLYPKAIPSSDPASVSPHQPLAPSMAPVAGLTWEDSEGTEGSSLLPGEQPLHTVDPGSAKQRPPR
notes: also called CSF-1-FLAG; not shown: FLAG tag

Kd [6]: ~0.01 nM
B4: human recombinant CSF-1 (colony stimulating factor-1) (ligand, UniProt P09603 36-253, looked up)
chain: SEYCSHMIGSGHLQSLQRLIDSQMETSCQITFEFVDQEQLKDPVCYLKKAFLLVQDIMEDTMRFRDNTPNAIAIVQLQELSLRLKSCFTKDYEEHDKACVRTFYETPLQLLEKVKNVFNETKNLLDKDWNIFSKNCNNSFAECSSQDVVTKPDCNCLYPKAIPSSDPASVSPHQPLAPSMAPVAGLTWEDSEGTEGSSLLPGEQPLHTVDPGSAKQRP
notes: also called hCSF-1
